Results reported in patent US7572594B2, “Screening assays for agonists or antagonists or receptor activator of NF-κB” (Immunex Corporation, priority 2000, dated 2009).

Assays:
[1] = tested on: mouse MMP-9 mRNA; test: Quantitative RT-PCR of MMP-9 mRNA in RAW 264.7 cells; format: cell-based; details: RANKL/LZ 200 ng/ml or TNFα 20 ng/ml, various times
Excerpt: MMP-9 mRNA is elevated greater than 350-fold by RANK-L, but is not increased by TNFα. This specificity is helpful in screening for inhibitors of RANK signal transduction.

[2] = tested on: mouse TRAP mRNA; test: Quantitative RT-PCR of TRAP mRNA in RAW 264.7 cells; format: cell-based; details: RANKL/LZ 200 ng/ml or TNFα 20 ng/ml, various times
[3] = tested on: endogenous c-jun kinase (JNK); test: JNK immune-complex kinase assay in transfected 3T3 cells; format: cell-based, murine; details: 3T3 cells 24 hours after transfection, absence of RANK-L stimulation
Procedure: This example describes evaluating murine 3T3 cells transfected with plasmids containing DNA encoding human FEO RANK (SEQ ID NO:9), and murine 3T3 cells expressing recombinant DNA encoding human wild type RANK (SEQ ID NO:1) for their relative ability to activate endogenous c-jun kinase (JNK) in the absence of RANK-L stimulation. JNK is known to be activated as a consequence of RANK signal transduction.
For JNK assays, whole cell extracts were prepared from 3T3 cells 24 hours after transfection. Cells were lysed in a buffer containing 20 mM HEPES, pH 7.4, 2 mM EGTA, 50 mM β-glycerol phosphate, 1 mM DTT, 1 mM sodium orthovanadate, 1% Triton-X 100, 10% glycerol and the protease inhibitors leupeptin, pepstatin A, and PMSF. Clarified lysates were immunoprecipitated with 1 μg each anti-JNK (FL) and anti-JNK (C17) antibodies (both from Santa Cruz Biotechnology, Inc. Santa Cruz, Calif.). […] JNK activity was determined by an immune-complex assay using 1 μg of a fusion protein of glutathione-S-transferase and amino acids 1-169 of […] (GST-cJun (1-169)) (UBI, Lake Placid, N.Y.) and 5 μCi of [^32P]-ATP as substrate in 40 μl of assay buffer at 30° C. for 20 min. […]

[4] = tested on: MMP-9 promoter (nucleotides 1769-3591 of SEQ ID NO:11); test: pSIR/MMP-9 hIL-2 αR reporter in RAW264.7 cells, flow cytometry; format: cell-based, murine; details: RAW264.7 cells stably expressing pSIR/MMP-9
Excerpt: The location of the RANK-responsive portion of MMP-9 promoter was more narrowly identified by testing further truncations of the promoter. A PVUII/BGL2 restriction fragment including the 5′-proximal 1822 bp of the MMP-9 promoter was fused with a BLGII/EcoRI restriction fragment encoding the human IL-2 receptor a in the multicloning site of the pSIR retroviral vector (Clontech). The resulting plasmid, which was named pSIR/MMP-9, is responsive to RANK and is useful in assays to identify RANK antagonists. The region of the MMP-9 promoter present in pSIR/MMP-9 corresponds to nucleotides 1769-3591 of SEQ ID NO:11.
pSIR/MMP-9 was introduced into RANK responsive cells as follows. Retroviral particles were prepared after transfection of 293/E packaging cells with pSIR/MMP-9. RAW264.7 cells were infected with these particles and neomycin resistant colonies stably expressing the reporter were isolated. Treatment of these cells with RANKL led to an increase in the cell surface expression of the hIL-2 αR, as detected by flow cytometry using the mouse mAb (clone 2A3) anti-human IL-2 αR as a reagent for detecting the IL-2R. […]
Surface expression of human IL-2α receptor is detected by flow cytometry in the following manner. […] After washing the cells, the fluorescence intensity is measured using a flow cytometer, such as a FACS scan (Becton Dickinson).

[5] = tested on: RANK; test: radioimmune assay of reporter surface expression in 293/EBNA cells; format: cell-based; details: 48 hours after transfection
Procedure: Additionally, surface expression of human IL-2α receptor can be analyzed using a radioactive antibody against IL-2α receptor. For the mIL-4R-specific radioimmune assay, mouse anti-human IL-2α monoclonal antibody reactive with mIL-4R was labeled with ^125I via a Chloramine T conjugation method; the resulting specific activity is typically […]. After 48 hours, cells transfected with pGL2-MMP-9/human IL-2 receptor were washed once with media (DMEM, 12 5% FBS). Non-specific binding sites were blocked by the addition of pre-warmed binding media containing 5% non-fat dry milk and incubation at 37° C./5% CO2 in a tissue culture incubator for one hour. The blocking media was decanted and binding buffer containing ^125I anti-mIL-4R (clone M1; rat IgG1) was added to the cells and incubated with rocking at room temperature for 1 hour. After incubation of the cells with the radio-labeled antibody, cells were washed extensively with binding buffer (2 X) and twice with phosphate-buffered saline (PBS). Cells were lysed in 1 ml of 0.5M NaOH, and total radioactivity measured with a gamma counter.

Q: Which results are given for TNFα [reference compound]?
A: MMP-9 mRNA elevation [1]: not increased; TRAP mRNA elevation [2]: about 2.3 fold

B1: FEO RANK: mutated form of RANK isolated from patients with familial expansile osteolysis (SEQ ID NOS:9 and 10), expressed from transfected DNA (protein, listed as Homo sapiens)
chain: MAPRARRRRPLFALLLLCALLLLCALLARLQVALQIAPPCTSEKHYEHLGRCCNKCEPGKYMSSKCTTTSDSVCLPCGPDEYLDSWNEEDKCLLHKVCDTGKALVAVVAGNSTTPRRCACTAGYHWSQDCECCRRNTECAPGLGAQHPLQLNKDTVCKPCLAGYFSDAFSSTDKCRPWTNCTFLGKRVEHHGTEKSDAVCSSSLPARKPPNEPHVYLPGLIILLLFASVALVAAIIFGVCYRKKGKALTANLWHWINEACGRLSGDKESSGDSCVSTHTANFGQQGACEGVLLLTLEEKTFPEDMCYPDQGGVCQGTCVGGGPYAQGEDARMLSLVSKTEIEEDSFRQMPTEDEYMDRPSQPTDQLLFLTEPGSKSTPPFSEPLEVGENDSLSQCFTGTQSTVGSESCNCTEPLCRTDWTPMSSENYLQKEVDSGHCPHWAASPSPNWADVCTGCRNPPGEDCEPLVGSPKRGPLPQCAYGMGLPPEEEASRTEARDQPEDGADGRLPSSARAGAGSGSSPGGQSPASGNVTGNSNSTFISSGQVMNFKGDIIVVYVSQTSQEGAAAAAEPMGRPVQEETLARRDSFAGNGPRFPDPCGGPEGLREPEKASRPVQEQGGAKA
Q: For B1, which “activation of JNK” value [3] is on record?
A: activated

B2: RANKL: RANK ligand used to treat RAW264.7 reporter cells; form not specified (protein)
chain: MRRASRDYTKYLRGSEEMGGGPGAPHEGPLHAPPPPAPHQPPAASRSMFVALLGLGLGQVVCSVALFFYFRAQMDPNRISEDGTHCIYRILRLHENADFQDTTLESQDTKLIPDSCRRIKQAFQGAVQKELQHIVGSQHIRAEKAMVDGSWLDLAKRSKLEAQPFAHLTINATDIPSGSHKVSLSSWYHDRGWAKISNMTFSNGKLIVNQDGFYYLYANICFRHHETSGDLATEYLQLMVYVTKTSIKIPSSHTLMKGGSTKYWSGNSEFHFYSINVGGFFKLRSGEEISIEVSNPSLLDPDQDATYFGAFKVRDID
Q: Which results are given for B2?
A: cell surface expression of the hIL-2 αR [4]: increase; time to maximal level of hIL-2 α receptor expression [4]: ≤ 48 h

B3: RANK-L: RANK ligand, Type 2 transmembrane protein that binds to and activates RANK; human full-length SEQ ID NO:6 (protein, listed as Homo sapiens)
chain: B2 chain
Q: How did the “transcriptional activation, reporter detected on the cell surface” value [5] turn out when B3 was run?
A: resulted in transcription of muIL-4R
